Test [1] concerns the target T1, human coagulation factor XI (human, UniProt P03951 19-625). Kind of test: cell-based or functional assay.
Test [2] concerns the target T1, human coagulation factor XI. As to the kind of experiment: solid phase binding assay, biotinylated 14E11 on immobilized human FXI.
Test [3] deals with T2, mouse coagulation factor XI (mouse, UniProt Q91Y47 19-624).
T2 construct: also called mouse FXI; mFXI
As to the kind of experiment: solid phase binding assay, biotinylated 14E11 on immobilized mouse FXI.

Test [4] concerns the target human activated coagulation factor XI (FXIa) (human) (UniProt P03951). As to the kind of experiment: solid phase binding assay, biotinylated 14E11 on immobilized human FXIa.
The target in test [5] is T1, human coagulation factor XI. As to the kind of experiment: earlier solid phase binding assay (FIG. 2D), biotinylated 14E11 on immobilized FXI.
The target in test [6] is T2, mouse coagulation factor XI. The description is as above.
The target in test [7] is human activated coagulation factor XI (FXIa) (human) (UniProt P03951). As to the kind of experiment: earlier solid phase binding assay (FIG. 2D), biotinylated 14E11 on immobilized FXIa.
In test [8] the target is T1, human coagulation factor XI. Kind of test: solid phase binding assay, biotinylated antibody on immobilized FXI, apparent Kd.
The target of test [9] is T2, mouse coagulation factor XI. The description is as above.
Test [10] addresses T3, human activated coagulation factor XI (FXIa) (human, UniProt P03951 19-625).
T3 construct: also called human FXIa; hFXIa
As to the kind of experiment: solid phase binding assay, biotinylated antibody on immobilized FXIa, apparent Kd.
Protocol: Microtiter plates were coated with FXI or FXIa (2 μg/ml, 100 μL/well) in 50 mmol/L Na₂CO₃ pH 9.6 was incubated overnight at 4° C. in Immulon 2HB microtiter plates (Thermo Scientific). Wells were blocked with 150 μL phosphate buffered saline (PBS) with 2% BSA for 1 hour at room temperature. […] After washing with PBS-0.1% Tween-20 (PBS T), 100 μL streptavidin-horse-radish-peroxidase (ThermoFisher Scientific, 1:8000 dilution in FIBS) was added, and incubated at room temperature for 90 minutes. After washing with PBS-T, 100 μL substrate solution (12 mL 30 mmol/L citric acid; 100 mmol/L Na₂HPO₄, pH 5.0; and 1 o-phenylenediamine dihydrochloride tablet, 12 μL 30% H₂O₂) was added. Reactions were stopped after 10 min with 50 μL 2.5 M H₂SO₄. […] The data was analyzed by non-linear regression analysis and the apparent Kd (equilibrium dissociation constant) was calculated as the concentration of AB023 needed to achieve half-max binding at equilibrium using GraphPad Prism (v. 5.0).

A word on the EC50 (read off the curve): it is the concentration that produces a half-maximal response. The molecule “14E11, murine monoclonal anti-FXI antibody” had an aPTT of plasma, antibody concentration at maximum inhibition in [1] of 25 to 50 nM. Further, the EC50 (read off the curve) in [2], in [3] and in [4] was 3 pM throughout. Moreover, the Kd in [5] is 2 to 3 pM; in [6], 2 to 3 pM; in test [7], 2 to 3 pM; in test [8] it was 390 pM; in test [9], 70 pM.

B1: AB023, humanized anti-FXI monoclonal antibody (variant VH3/Vκ3, clone 3G3) (antibody, V domains shown)
VH: QVQLQESGPGLVKPSETLSITCTVSGFSLTGYGIYWVRQPPGKGLEWLGMIWGDGRTDYNSALKSRVTISKDNSKSQVSLKLSSVTAADTARYYCARDYYGSKDYWGQGTTVTVSS
VL: DIQMTQSPSSLSASVGDRVTITCKASQDVSTAVAWYQQKPGKAPKLLIYLTSYRNTGVPDRFSGSGSGTDFTFTISSLQPEDIAVYYCQQHYKTPYSFGGGTKVEIKR
notes: Human IgG4 with S241P (Kabat) hinge modification, kappa light chain; also called A13023; A8023
For the molecule B1, the “fold prolongation of aPTT of FXI deficient plasma + 10 µg/mL FXI after adding 100 µg/mL AB023” value in [1] was about 2 fold. For the same molecule, the Kd amounted to 3200 pM in test [8], 160 pM in test [9] and 1300 pM in [10].

Source of the values: patent US20220089777A1 (ARONORA, published 2022).
